The nature of the data set: label from the status in PepcDB records.
In the case of “MNIDLTPYYAEPGEQPFSARRMAMPWRNHVPLSPEQIPAGWQTLKQQSVPARKRLLYLHIPFCATHCTFCGFYQNKLRDDSTATYTRYLLQELAMEADSPLHQSAPIHAVYFGGGTPTALAADELSQIIRAIRTSLPLAPDCEITVEGRAMDFDDERIDACLDAGANRFSIGIQTFDTRIRQRMARTSDKQQSIRFLERLCGRDRAAVVCDLMFGLPGQTPEIWREDLAIVSDLPLDGVDLYALNLLPTTPLAKAAENQRVALPDVVARRDFYRTGAAFLADSGWHQLSNSHWARTTRERNLYNLLIKQGADCLAMGSGAGGNINGQAYMMERSLERYYQQIDQGQKPIMMMTPASSTGPWQHQLQAGIEVGRIKLPQLTQHARELQPLLSQWHQAGLTCDDSTCLRLTNDGRFWANNLMQALQQIIPQLNAEEHAHLEHHHHHH”, the protein production entry is “not failed”.
For the sequence “MNIEKTRFCINRKIAPGLSIEAFFRLVKRLEFNKVELRNDMPSGSVTDDLNYNQVRNLAEKYGLEIVTINAVYPFNQLTEEVVKKTEGLLRDAQGVGARALVLCPLNDGTIVPPEVTVEAIKRLSDLFARYDIQGLVEPLGFRVSSLRSAVWAQQLIREAGSPFKVLLDTFHHHLYEEAEKEFASRIDISAIGLVHLSGVEDTRPTEALADEQRIMLSEKDVMQNYQQVQRLENMGYRGIYAFEPFSSQLASWSEAEIEEQINRSVSLLLQ”, the protein production entry is listed as “not failed”.
“MNIIIATTKSWNIKNAQKFKKENESKYNTTIITNKDELTFEKVKLINPEYILFPHWSWIIPKEIFENFTCVVFHMTDLPFGRGGSPLQNLIERGIKKTKISAIKVDGGIDTGDIFFKRDLDLYGTAEEIFMRASKIIFNDMIPELLTKRPVPQKQEGEATVFQRRKPEQSEISPDFDLEKIYDYIRMLDGEGYPRAFIKYGKYRLEFSRASMKNGKIIADVEIIEGDENE”: the protein production result is recorded as “not failed”.
To “MNIITTDPLFGFVLTVLVFMIGVRINENFRKPWTNPLLFATVVIILILSLAHIPYKNYYIGGSIINDLIGPSTVALGIPLYKTFHLMKHHARSIVSSIAIAALVNCIFTALCAKFFSLSKLASLSIFPKSVTTAMAMGISDKMHGVEQITVVVVVATGILTSVLGGPLLKLFRITDPVAQGIALGGTGHAVGTGTAIELGKTQGAMAALSIGVTGIMYVIFAPIIAKIILGY” belongs “failed”; to “MNIKVTVFHYILDRSYIFLLFIIFISLIFPIISAFISLIFVGLLFQGLYLRRQSSTNSPYIVLEILSMLSLIYAAQFFTHLLKATDIVFLSYLIIISLSLYRLKRIIKKKTNYLQNSKVAFTLLLLAFLLNWFISGFLDLTQGNFSVFGQFGYFSYPFLAIMNFISAFASITASPWFMIDMGIWLGVIGIFRIIEYNKLENKIRYLLMMFAYAFYSIYLPSFSPLQSEVQYIPYMWFNGLGTYGPVRSSYLLDGIIGTFTVTAILSFMFGSRQICSVTCTAPYMLQNTFLNSMKKYNRSSKVGRKTLTSRMSSWYKWVMSITWISLIILAVLSFLKFSILGNDPTMFYTSLYFNVIWYFQFMLMPFLGNYACVNSGICAWGSFNQLFGYLGFFKLKVRDLKQCLNCKTVDCANACPVGLTDMRAWFIKKGEFKSFKCVGVGDCVEVCPYNNITFYDVRSWIKEKLYPIQFKHRGTT”, “failed”.
As for “MNILLAFKAEPDAGMLAEKEWQAAQGNSGPDVSLLRSLLGADEQAAAALLLAQRKNGTSMSLTALSMGDERALHWLRYLMALGFEDAVLLETAADLRFAPEFVARHIAEWQYQNPLELIITGCQSSEGQNGQTPFLLAEMLGWPCFTQVERFTLDAPFITLEQRTENGLRCCRVRLPAVIAVRQCGEVALPVPGMRQRMAAGKAEIIRKTVAAEMPAMQCLQLARAEQRRGATLIDGQTVAEKAQKLWQYYLCQRMQ”, the protein production result is “failed”.
With “MNILNNKNKRTSIFKALALCLFAAVSFTFVSCDDDMDIQQSYPFTVETMPVPNKVTKGQTVEIRCELKKTGDFANTLYTIRYFQFEGEGTLKMDNGITFLPNDRYLLENEKFRLYYTAQGDEAHNFIVVVEDNFGNSYELEFDFNNRNVKDDGVITVVPIGNFKPLTR”, the protein production result was “failed”.
Turning to “MNILYNERIDGVLPAVDKQQLLDELRRQLPDLDVLHRTEELRPYECDGLSAYRTTPMLVVLPRHLEEVQTLLRLCHAHRVPVVARGAGTGLSGGALPLEKGVLLVMARFNQILAIDPAARVARVQPGVRNLAISQAAAPHGLYYAPDPSSQIACSIGGNVAENAGGVHCLKYGLTVHNLLKVEILTVEGEAMTLGSDTLDSPGFDLLALFTGSEGMLGIITEVTVKLLPRPQVAKVLLAAFDSVEKAGRAVADIIAAGIIPGGLEMMDNLAIRAAEDFIHAGYPVDAEAILLCELDGVEADVHADCERVREVLTQAGATEVRQAIDEAERVRFWAGRKNAFPAVGRLSPDYYCMDGTIPRRALPGVLRGISELSGQYGLRVANVFHAGDGNMHPLILFDANQPGELQRAEALGGKILELCVEVGGSITGEHGVGREKINQMCAQFNSDELTFFHAIKAAFDASGMLNPGKNIPTLQRCAEFGAMHIHAGQLPFPELERF”, the protein production entry was “failed”.
“MNINGIKLLSSRAVSKLGDVFYDYGNSTWIASMGGLGQKILGIYQIVELLVSIVLNPFGGALADRFQRRKILLITDAICAIMCFLLSFIGDDKVMVYGLIVANAILAVSNAFSSPAYKSYIPEIVDKADIITYNANLETIVQIISVSSPVLGFLIFNNFGIRITLIVDAITFLISFLFLYAIKVERVQLSKQEKVAIKNILADIADGFTYIKKEKEIMFFLIIAALLNTFLAMFNYLLPFTNSLLKTSGAYATILSISAIGSIIGALIARKIKSSINSMLSMLVFSSLGVIVMGFPSLFELPIWIPYSGSFLFNSLLTMFNIHFFSQVQIRVDEAYMGRVMSTIFTIAIMFMPIGTLFMTIFSFALSNVSFIVIGCAIAILGGLGFSYSKKQF”: the protein production entry was “failed”.
For the sequence “MNINVAELLNGNYILLLFVVLALGLCLGKLRLGSIQLGNSIGVLVVSLLLGQQHFSINTDALNLGFMLFIFCVGVEAGPNFFSIFFRDGKNYLMLALVMVGSALVIALGLGKLFGWDIGLTAGMLAGSMTSTPVLVGAGDTLRHSGMESRQLSLALDNLSLGYALTYLIGLVSLIVGARYLPKLQHQDLQTSAQQIARERGLDTDANRKVYLPVIRAYRVGPELVAWTDGKNLRELGIYRQTGCYIERIRRNGILANPDGDAVLQMGDEIALVGYPDAHARLDPSFRNGKEVFDRDLLDMRIVTEEVVVKNHNAVGKRLAQLKLTDHGCFLNRVIRSQIEMPIDDNVVLNKGDVLQVSGDARRVKTIADRIGFISIHSQVTDLLAFCAFFVIGLMIGMITFQFSTFSFGMGNAAGLLFAGIMLGFMRANHPTFGYIPQGALSMVKEFGLMVFMAGVGLSAGSGINNGLGAIGGQMLIAGLIVSLVPVVICFLFGAYVLRMNRALLFGAMMGARTCAPAMEIISDTARSNIPALGYAGTYAIANVLLTLAGTIIVMVWPGLG”, the protein production result is recorded as “failed”.
To “MNIQIILSLIFSMILMACTTSSPQKDLSRICDSSGCSDRSGNYVSNHSSAASSDEEARIRVLEDVARQDPRAAYDLGLRYFRGDGVRQDSYQALQWMREAAERGDLNAQKALGRLYLTGLEEMGADYREAEKWLRIAASRGDKESEQLLVEAAAFASEERRSGEIYHRWVNRWQPVFYQRWYYGYPYLGTWRGNYWYY” belongs “failed”.
For “MNIRHIRNATAVIEYGGKRILIDPMLSDKGSFDPFPNSPRQDQKNPLVELPMAIEDIINDIDLVILTHLHIDHFDPKAIEVLPKDIKIYAQNEEDASEVERYGFTNVSVFNDVTHIGEIELIKTDAQHGHGEILKMTGHVHGMILKHSEEPTLYLAADTVWFEGVEKALKTYQPDVVVLNGGANQFFEGGPLVMDEHDVLKVANTLPLAQIVVVHMEAVNHWHLSRKELNEFINSNDLGNRVVVPNDGELLTFEK”, the protein production result is given as “failed”.
To “MNIRRARPDDLMNMQHCNLLCLPENYQMKYYFYHGLSWPQLSYIAEDEDGKIVGYVLAKMEEDPDDVPHGHITSLAVKRSHRRLGLAQKLMDQASRAMIENFSAKYVSLHVRKSNRAALHLYSNTLNFQVSEVEPKYYADGEDAYAMKRDLSQMADELRRQLVLKKGRYVVLGSKENQGSTLPGSEEASQQENLAGGDSGSDGKDSTDVQDSLQTLGSAS” belongs “failed”; to “MNITLGYIDPVAFSLGPIQVRWYGIIIACGILLGYFIAQAALKQVGLHKDTLIDIIFYSAIVGFIVARIYFVTFQWPYYMNHLSEIPKIWHGGIAIHGGLIGGLISGIIVCKIKNLHPFQIGDIVAPSIILAQGIGRWGNFMNHEAHGGPVSRAFLEHLHLPDFIIRNMYIEGQYYHPTFLYESIWDVIGFVILITLRKRLKLGETFFGYLIWYSVGRFFVEAMRTDSLMLTSHIRVAQLVSVVLILISVIFVIYRRVKYQPIKYENSGPLTWPIKKAK”, “failed”.
For “MNITLLKSKIHRASVTEARLDYIGSISIDEKLLQASGILEYEKVQVVNVNNGARFETYTIATQEEGVVCLNGAAARLAEVGDKVIIMSYADFNEEEAKTFKPKVVFVDENNTATKITNYEKHGAIF”, the protein production entry is listed as “not failed”.
In the case of “MNITVNDRECSAQVGDRLLDIARANHSHIGYFCGGNAICQTCYVRVLEGAELLSPMSDAEKAMLSDKLIKEGTRMACQTLIEKPGKITVLSEVEAAKRLTLENPLQLPAYMGKMGWEAAVKFTDTIAFQARREQGEHALEPTQLLHDVAAAISDAIQLVFNAVQAAFGVNRSTDKPEIKADKGCGCDTTLLAKTATCDNGHGRIVSPEVLQLHQERSAVCN”, the protein production entry is on record as “failed”.
For the sequence “MNIVENEICIRTLIDDDFPLMLKWLTDERVLEFYGGRDKKYTLESLKKHYTEPWEDEVFRVIIEYNNVPIGYGQIYKMYDELYTDYHYPKTDEIVYGMDQFIGEPNYWSKGIGTRYIKLIFEFLKKERNANAVILDPHKNNPRAIRAYQKSGFRIIEDLPEHELHEGKKEDCYLMEYRYDDNATNVKAMKYLIEHYFDNFKVDSIEIIGSGYDSVAYLVNNEYIFKTKFSTNKKKGYAKEKAIYNFLNTNLETNVKIPNIEYSYISDELSILGYKEIKGTFLTPEIYSTMSEEEQNLLKRDIASFLRQMHGLDYTDISECTIDNKQNVLEEYILLRETIYNDLTDIEKDYIESFMERLNATTVFEGKKCLCHNDFSCNHLLLDGNNRLTGIIDFGDSGIIDEYCDFIYLLEDSEEEIGTNFGEDILRMYGNIDIEKAKEYQDIVEEYYPIETIVYGIKNIKQEFIENGRKEIYKRTYKD”, the protein production result is “failed”.
To “MNIVTLLGSPRSRGISAAIAARFTDTAAGLGAQTRTFELNRLAYRGCQGCYACKKTLDHCVLTDDLAQVLDAVRGADVVVLASPVYYGDVTAQLKGFIDRTFSYLKPDYLSNPQPSRLSPKKLVFVLTQGHPDEGMFADIFPRYEGFLTWLGFVDARLIRACGFGPSTVDKVPEQYLREAEQAAREIVGQGKG” belongs “failed”.
Regarding “MNKDFTFTIKSSCFDENYNPSENTRITTNFANLARGKSRQENLRNTLVMMDNRFNTLAYWDNPKANRYSVELEIISVEIDIEGNGDTFPAIEILKTNIVDKKTNERIEGIVGNNFSSYVRDYDFSVLLPEHNKSHPGFSTPDNFGDLHGKLFKCFTNSKFYKDNFNKQPVICLSVSSKNTYHRTGNQHPVLGIEYQQNEPSLTDHYFERMGLQARYFMPANSVAPLAFYFSGDLLNDYTNLELISTISTMETFQKIYRPEIYNANSAAGQYYQPNLNNQDHSLTKIVYDRVERSQLAIEQGKFTEEHFIKPYKNILEQWSAHYAR”, the protein production entry is “not failed”.

The record behind these values is a protein production outcome set (Wang et al. 2014).
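Further: failed if final PepcDB status was selected cloned or expressed and not failed if soluble or beyond.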
